Here are results for six molecules from US20150203581A1 (Genentech, published 2015).

Numbering of substitutions follows the chain as printed. Names and notes keep the numbering of the source. Read-outs that look alike come from different tables or passages of the source.

In assay [1] the target is T1, recombinant human integrin α5β1 (human, UniProt P08648 42-995; P05556 21-728).
T1 construct: also called human α5β1 integrin
Put plainly: SPR (BIAcore), IgG captured on anti-human Fc chip, Human Integrin α5β1 (R&D) as analyte. The method, then:
(§1) To determine binding kinetics and affinities of the antibodies described herein, Surface Plasmon Resonance (SRP) measurement with a BIAcore™-3000 instrument was used. Antibody was first captured by pre-immobilized rabbit anti-human Fc CM5 biosensor chip on the different flow cell to achieve approximately 150 RU (Response Units). For kinetics measurements, 2-fold serial dilutions of human integrin α5β1 (300 nM to 1.2 nM) were injected in PBT buffer (PBS with 0.05% Tween 20) at 25° C. with a flow rate of 30 μl/min. Association rates (kₒₙ) and dissociation rates (koff) were calculated using a simple one-to-one Langmuir binding model (BIAcore Evaluation Software version 3.2). The equilibrium dissociation constant (KD) was calculated as the ratio koff/kₒₙ.
(§2) To determine binding kinetics and affinities of chimeric 18C12, h18C12.v6.1, h18C12.v6.1.1, h18C12.v6.1.2, h18C12.v6.1.3, h18C12.v6.1.4, h18C12.v6.1.5 IgGs, Surface Plasmon Resonance (SRP) measurement with a BIAcore™-3000 instrument as described in Example 1 was used.

Assay [2] has as its target T1, recombinant human integrin α5β1. Kind of assay: SPR (BIAcore), antibody as hIgG is the captured ligand, Human Integrin α5β1 (R&D) is the analyte. The method, then: as §1
For assay [3] the target is unchanged. Put plainly: phage competition ELISA: Fab-displaying phage pre-incubated with serially diluted soluble human integrin α5β1, unbound phage captured on plate-coated human integrin α5β1, anti-M13-HRP detection. As for the experimental part: MAXISORP™ microtiter plates were coated with recombinant human integrin β5β1 (R&D) at 5 μg/ml in PBS overnight and then blocked with PBST buffer (0.5% BSA and 0.05% Tween 20 in PBS) for an hour at room temperature. Phage from culture supernatants were incubated with serially diluted human integrin α5β1 in PBST buffer in a tissue-culture microtiter plate for an hour, after which 80 μl of the mixture was transferred to the target-coated wells for 15 minutes to capture unbound phage. The plate was washed with PBT buffer (0.05% Tween 20 in PBS), and HRP-conjugated anti-M13 (Amersham Pharmacia Biotech) was added (1:5000 in PBST buffer) for 40 minutes. The plate was washed with PBT buffer and developed by adding tetramethylbenzidine substrate (Kirkegaard and Perry Laboratories, Gaithersburg, Md.). The absorbance at 450 nm was plotted as a function of target concentration in solution to determine phage IC₅₀.

In assay [4] the target is T2, recombinant α5β1 extracellular domain.
T2 construct: extracellular domain; also called α5β1 (R & D Systems)
Put plainly: blocking ELISA: antibody titrated and premixed with recombinant α5β1 (R&D), then added to fibronectin-coated wells; bound α5β1 detected with anti-β1-biotin / streptavidin-HRP (OD450); the blocked ligand is fibronectin. The method, then:
anti-β5β1 antibody (30 μg/mL) was serially diluted 1:3 11 times. 50 μl of the serially diluted anti-β5β1 antibody was added to 0.65 mL micro tubes and premixed (1:1) with 50 μL of 200 ng/mL […] (R & D Systems) in ELISA buffer (150 mM NaCl, 10 mM Tris, pH 7.5, 5 mg/mL BSA, 1 mM MnCl₂) for 60 minutes at room temperature with gentle agitation. 25 μL of the premixed α5β1 and anti-β5β1 antibody was added to the Fibronectin coated wells and the plates were incubated at room temperature for 60 minutes with gentle agitation. Plates were washed 6 times with PBT buffer, 100 ng/mL anti-β1-biotin in ELISA buffer was added to each well and the plates were incubated for 60 minutes at room temperature with gentle agitation. Plates were washed 6 times with 80 μL PBT buffer, 25 μL of Streptadvidin-HRP (1:50,000 in ELISA buffer, GE Healthcare) was added to each well, and the plates were incubated for 60 minutes at room temperature with gentle agitation. Plates were washed 6 times with 80 μL PBT buffer, 25 μl of TMB substrate (Kirkgaard and Perry Laboratories) was added to each well, plates were incubated about 6 minutes at room temperature, and the reaction was stopped with 25 μL of 1 M Phosphoric Acid. Absorbance was read at 450 nm and IC₅₀ values were analyzed as described in section B above. […]

In assay [5] the target is T1, recombinant human integrin α5β1. Put plainly: cell-based or functional assay.
Assay [6] has the same target. Put plainly: cell-based or functional assay. The source holds these as a separate data set.
For assay [7] the target is unchanged. Put plainly: SPR (BIAcore), antibody as hIgG is the captured ligand, Human Integrin α5β1 (R&D) is the analyte. As for the experimental part: as §1, §2
The source holds these as a separate data set.

Assay [8] shares this target. Put plainly: BIAcore SPR, IgG captured by anti-human Fc, human integrin α5β1 as analyte. The method, then: as §1, §2

T1 sequence (P08648 42-995 limits assumed, chain 1 of 2): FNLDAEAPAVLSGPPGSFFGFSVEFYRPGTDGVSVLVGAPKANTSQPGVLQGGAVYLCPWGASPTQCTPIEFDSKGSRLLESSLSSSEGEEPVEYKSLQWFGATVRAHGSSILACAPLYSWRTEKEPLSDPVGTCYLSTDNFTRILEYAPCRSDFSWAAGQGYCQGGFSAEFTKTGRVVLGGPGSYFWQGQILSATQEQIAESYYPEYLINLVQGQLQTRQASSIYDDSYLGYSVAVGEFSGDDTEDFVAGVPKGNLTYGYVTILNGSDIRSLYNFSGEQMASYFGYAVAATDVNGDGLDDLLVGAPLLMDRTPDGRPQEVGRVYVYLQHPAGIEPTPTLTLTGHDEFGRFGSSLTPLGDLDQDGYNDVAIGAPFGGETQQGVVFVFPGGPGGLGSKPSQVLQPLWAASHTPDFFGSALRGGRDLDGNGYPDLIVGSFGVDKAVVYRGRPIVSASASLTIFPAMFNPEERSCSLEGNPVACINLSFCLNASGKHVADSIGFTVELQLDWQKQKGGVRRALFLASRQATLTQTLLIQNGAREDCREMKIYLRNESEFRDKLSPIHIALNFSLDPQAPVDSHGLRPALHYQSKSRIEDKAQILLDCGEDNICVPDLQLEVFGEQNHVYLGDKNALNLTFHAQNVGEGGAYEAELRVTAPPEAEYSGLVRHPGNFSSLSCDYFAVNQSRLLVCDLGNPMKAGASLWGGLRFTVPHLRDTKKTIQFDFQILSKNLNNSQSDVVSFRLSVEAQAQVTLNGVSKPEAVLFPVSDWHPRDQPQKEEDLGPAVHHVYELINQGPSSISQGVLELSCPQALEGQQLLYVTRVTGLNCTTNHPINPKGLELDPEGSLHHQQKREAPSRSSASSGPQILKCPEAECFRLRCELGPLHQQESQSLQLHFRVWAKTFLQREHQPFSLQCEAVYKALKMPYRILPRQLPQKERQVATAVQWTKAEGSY
T1 sequence (P05556 21-728 limits assumed, chain 2 of 2): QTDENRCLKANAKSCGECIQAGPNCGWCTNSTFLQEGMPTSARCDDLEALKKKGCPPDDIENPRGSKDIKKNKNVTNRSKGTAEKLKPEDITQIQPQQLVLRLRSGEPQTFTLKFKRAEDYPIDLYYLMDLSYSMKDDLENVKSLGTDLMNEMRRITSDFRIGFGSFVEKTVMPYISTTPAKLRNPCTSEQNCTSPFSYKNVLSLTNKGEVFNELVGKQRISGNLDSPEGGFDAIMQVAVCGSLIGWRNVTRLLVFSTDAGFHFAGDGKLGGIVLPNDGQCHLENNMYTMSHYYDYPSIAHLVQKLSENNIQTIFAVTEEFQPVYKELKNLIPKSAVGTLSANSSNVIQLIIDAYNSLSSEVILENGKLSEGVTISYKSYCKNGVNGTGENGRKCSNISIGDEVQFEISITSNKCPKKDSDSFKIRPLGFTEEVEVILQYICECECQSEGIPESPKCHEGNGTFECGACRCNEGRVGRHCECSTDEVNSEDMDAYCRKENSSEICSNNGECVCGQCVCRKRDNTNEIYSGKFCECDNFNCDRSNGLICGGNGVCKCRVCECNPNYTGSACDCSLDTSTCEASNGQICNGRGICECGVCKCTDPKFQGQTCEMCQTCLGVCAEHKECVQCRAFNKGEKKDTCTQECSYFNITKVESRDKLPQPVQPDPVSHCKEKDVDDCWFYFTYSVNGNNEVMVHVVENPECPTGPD
T2 sequence (P08648 42-995, chain 1 of 2): as the sequence (P08648 42-995 limits assumed, chain 1 of 2) above
T2 sequence (P05556 21-728, chain 2 of 2, further chain): as the sequence (P05556 21-728 limits assumed, chain 2 of 2) above

B1: h18C12.v6.1.2 (antibody, V domains shown)
VH: EVQLVESGGGLVQPGGSLRLSCAASGFTFSARWIYWVRQAPGKGLEWVGGIKTKPAIYATEYADSVKGRFTISRDDSKNTLYLQMNSLRAEDTAVYYCARLTGMKYFDYWGQGT
VL: SSELTQDPAVSVALGQTVRITCTLSSQHSTYTIGWYQQKPGQAPVYLMYLNSDGSHNKGSGIPDRFSGSSSGATRSLTITNAQAEDEADYYCAAYYAYGYVFGGGT
notes: copies: 2 + 2
Consider B1, for which, in assay [1], the Kd came to 13.5 nM, the koff is 0.000643 s⁻¹ and the kon was 48000 M⁻¹ s⁻¹.

B2: h18C12.v3 (Fab, V domains shown)
VH: B1 VH with A31N, A56N, K105R
VL: EPVLTQSPSASASLGASVKLTCTLSSQHSTYTIGWYQQQPGKAPRYLMYLNSDGSHNKGDGIPDRFSGSSSGADRYLTISNLQSEDEADYYCGSSYSSGYVFGGGT
notes: also called Humanized 18C12.v3; h18C12.v3 parental clone
Turning to B2, in assay [2], the Kd came out at 11.5 nM, the koff worked out at 0.000807 s⁻¹ and the kon is 71000 M⁻¹ s⁻¹. For the same molecule, in assay [3], the concentration for half-maximal inhibition (IC50) worked out at 0.72 nM.

B3: h18C12.v6.1.5 (antibody, V domains shown)
VH: B1 VH
VL: B1 VL with G54S
notes: Derived from h18C12.v6.1 by removing Asn in CDR-L2 positions 50a-50d; also called anti-α5β1 antibody h18C12.v6.1.5
Turning to B3, the half-maximal inhibitory concentration (IC50) in assay [4] is 0.077 nM. Moreover, in assay [1], the Kd is 15.5 nM, the koff was 0.000659 s⁻¹ and the kon turned out to be 43000 M⁻¹ s⁻¹. In addition, in assay [5], the “IC50 for inhibition of adhesion of U937 cells to plate-coated fibronectin (Cell-Titer Glo luminescence); the target is α5β1 on the U937 cells” value (“IC50 for inhibition” below) was found to be 0.126 nM.

B4: h18C12.v6.1Lam3 (antibody, V domains shown)
VH: B1 VH
VL: B1 VL with D53S
notes: CDRs come from h18C12.v6 with changes in CDR-L2 (D50cS, D56S), CDR-H1 (N31A) and CDR-H2 (N53A); The human λIII framework carries L46Y, V47L, I48M, N69A, A71R and G77N
As for B4, the “IC50 for inhibition” value in assay [6] was 0.207 nM. For the same molecule, in assay [7], the Kd was determined as 4 nM, the koff stood at 0.000386 s⁻¹ and the association rate constant (kon) is 97000 M⁻¹ s⁻¹. Also, in assay [8], the “fold higher binding affinity than hamster 18C12” value was approximately 2 fold.

B5: h18C12.v6 (Fab, V domains shown)
VH: B1 VH with A31N, A56N
VL: B2 VL with G93A, S94A, S95Y, S97A, S98Y
Take B5: in assay [2], the Kd was found to be 4.8 nM, the koff was found to be 0.00075 s⁻¹ and the kon was determined as 174000 M⁻¹ s⁻¹. Also, in assay [3], the IC50 stood at 0.41 nM.

B6: chimeric 18C12 (antibody, V domains shown)
VH: EVHLVESGGDLVQPGSSLKLSCAASGFTFSNRWIYWVRQAPGKGLEWVGGIKTKPNIYATEYADSVKGRFTISRDDSKNSLYLQMNTLRVDDTAIYYCTSLTGMRYFDYWGQGT
VL: QPVLTQSPSASASLGNSVKITCTLSSQHSTYTIGWYQQHPDKAPKYVMYLNSDGSHNKGDGIPDRFSGSSSGAHRYLSISNIQPEDEADYFCGSSYSSGYVFGSGT
notes: also called chimeric 18C12 IgG
On to B6, for which, in assay [6], the “IC50 for inhibition” value came out at 0.159 nM. In assay [7], the Kd stood at 7.68 nM, the koff was 0.000922 s⁻¹ and the kon is 120000 M⁻¹ s⁻¹.
